Assay results as given in publication PMC9036094, “Antigen-derived peptides engage the ER stress sensor IRE1α to curb dendritic cell cross-presentation” (The Journal of Cell Biology, 2022).
Entries after “also recorded” stand apart in the source; their conditions may differ.

Key:
[1] = system: IRE1α (XBP1s, pIRE1α) in BMDCs; assay: IRE1α activation in BMDCs (immunoblot); assay type: cell-based, mouse
Description: Figure 1. Antigen pulsing of BMDCs activates IRE1α. (A) BMDCs were pulsed with ovalbumin (starting at 62.5 μg/ml and sequentially doubled) and analyzed by immunoblot (IB) for the indicated markers. (B) BMDCs were pulsed with ovalbumin (starting at 500 μg/ml and sequentially halved) or […] (1 μM), or stimulated with tunicamycin (1 μg/ml) or poly-I:C (25 μg/ml) for 4 h, and analyzed by IB. (C) BMDCs were pulsed with ovalbumin (500 μg/ml) for indicated time points and analyzed by IB. (D) BMDCs were pulsed for 4 h with ovalbumin or lysates derived from the indicated cell lines (500 μg/ml protein) and analyzed by IB. […] (F) Upon removal from bone marrow, total bone marrow cells were transfected with non-targeting control (NTC) or TAP1-targeting gRNAs, along with CRISPR/Cas9 delivery constructs. Cells were then subjected to standard BMDC-differentiation protocol, pulsed with ovalbumin (500 μg/ml) for 4 h, and analyzed by IB. All IB images are representative of at least two similar experiments, and molecular weights represent kD. Source data are available for this figure: SourceData F1.
For purification and differentiation of BMDCs, the femur and tibia bones of C57BL/6 mice were flushed with sterile PBS, and bone marrow cells were then cultured in RPMI1640 media as described above and further supplemented with […] β2-mercaptoethanol (Sigma-Aldrich), 20 ng/ml GM-CSF (BioLegend), and 10 ng/ml IL-4 (BioLegend) for 9 d, with media being replenished every 3 d. Where indicated, Flt3L-BMDCs were similarly generated using media supplemented with 200 ng/ml recombinant mouse Flt3L (PeproTech; [Brasel et al., 2000]). After 9 d of culture, BMDCs were routinely verified to be >90% CD11c^+ MHC-II^high by flow cytometry analysis.
Thapsigargin (Sigma-Aldrich) was used at 100 nM, tunicamycin (Sigma-Aldrich) was used at 5 μg/ml, MG132 (Sigma-Aldrich) was used at 5 μM, Amiloride (Sigma-Aldrich) was used at 10 μM, actinomycin D (Sigma-Aldrich) was used at 4 μg/ml, LPS (Sigma-Aldrich) was used at 10 μg/ml, and poly-I:C (Sigma-Aldrich) was used at 25 μg/ml. Ovalbumin (Sigma-Aldrich), EF-OVA (EndoFit; InvivoGen), […] peptide (Sigma-Aldrich), and human CD4-Fc fusion protein (generated in-house at Genentech) were dissolved in PBS prior to pulsing and used at indicated concentrations.
Cells were lysed in PBS solution supplemented with 1X radioimmunoprecipitation assay buffer (Millipore) and 2X Halt protease-phosphatase inhibitor cocktail (Thermo Fisher Scientific). Upon clearance, samples were analyzed by SDS-PAGE, electrotransferred to nitrocellulose membranes (Invitrogen), and blocked by 5% powdered milk in PBSt (PBS supplemented with 0.1% tween) solution. Development was conducted with ECL reagent (Thermo Fisher Scientific) and imaging was performed with the ChemiDoc ZRS+ imager (Bio-Rad). Antibodies used for Western blot analysis include IRE1α (3294, rabbit; Cell Signaling Technology), β-actin (5125, rabbit; Cell Signaling), GAPDH (97166, mouse; Cell Signaling), ATF6 (66563-1-Ig, mouse; ProteinTech), TAP1 (12341, rabbit; Cell Signaling), CHOP (2895, mouse; Cell Signaling), ATF4 (11815, rabbit; Cell Signaling), ovalbumin (P1-196, rabbit; Thermo Fisher Scientific), human Fc (ab977225, rabbit; Abcam), Myc tag (2272, rabbit; Cell Signaling), and biotin (5597, rabbit; Cell Signaling). IRE1α lumenal domain (mouse), XBP1s (rabbit), and pIRE1α (rabbit) antibodies were generated at Genentech. Secondary antibodies used were for mouse (715-035-150; The Jackson Laboratory) and rabbit (711-035-152; The Jackson Laboratory).

IRE1α LD-Fc = assay: Plate-based ovalbumin binding to IRE1α LD-Fc; set-up: species or system human; conditions: LD-Fc 10 μg/ml, 2 h, room temperature; in words
Description: For experiments testing ovalbumin binding, a human LD-Fc was used at indicated concentrations. LD-Fc is comprised of amino acids M1-D443 of IRE1α fused C-terminally to a linker ([…]) followed by the human IgG1 hinge and Fc portion. Ovalbumin (Sigma-Aldrich) was dissolved in sterile PBS and used in native state or denatured as indicated by incubation at 95°C buffer for 10 min.
For plate-based binding experiments, native or heat-denatured ovalbumin at indicated concentrations was bound to a flat-bottom 96-well plate (Corning Inc.) with coating buffer (BioLegend), washed with PBSt, blocked with 1% BSA in PBS, and subsequently incubated with IRE1α LD-Fc (10 μg/ml) in binding buffer composed of PBS with 20 mM Hepes, 100 mM KOAc, and 0.2% tween-20 for 2 h at room temperature. Plates were washed again with PBSt and incubated with an anti-human Fc HRP-conjugated antibody (ab977225; Abcam). Development was performed with 3,3′,5,5′-Tetramethylbenzidine solution and terminated with Stop solution (BioLegend). Readings were taken with a SpectraMax M2 spectrometer (Molecular Devices).

B1: ovalbumin: classical protein antigen ovalbumin (Sigma-Aldrich) (protein)
chain: MGSIGAASMEFCFDVFKELKVHHANENIFYCPIAIMSALAMVYLGAKDSTRTQINKVVRFDKLPGFGDSIEAQCGTSVNVHSSLRDILNQITKPNDVYSFSLASRLYAEERYPILPEYLQCVKELYRGGLEPINFQTAADQARELINSWVESQTNGIIRNVLQPSSVDSQTAMVLVNAIVFKGLWEKAFKDEDTQAMPFRVTEQESKPVQMMYQIGLFRVASMASEKMKILELPFASGTMSMLVLLPDEVSGLEQLESIINFEKLTEWTSSNVMEERKIKVYLPRMKMEEKYNLTSVLMAMGITDVFSSSANLSGISSAESLKISQAVHAAHAEINEAGREVVGSAEAGVDAASVSEEFRADHPFLFCIKHIATNAVLFFGRCVSP
B1 was tested, and the “time of peak IRE1α phosphorylation” value ([1]; 4-h pulse, ovalbumin 500 μg/ml) was 2 h, the “time of peak XBP1s protein” value ([1]; 4-h pulse, ovalbumin 500 μg/ml) was 2 to 4 h and the IRE1α activation ([1]; GM-CSF + IL-4 BMDCs, immunoblot for XBP1s/pIRE1α, in words) was “concentration- and time-dependent activation of IRE1α; also recorded: much weaker IRE1α activation than did the potent pharmacological ER-stressor tunicamycin; also recorded: only IRE1α exhibited substantial activation”. The “binding to immobilized IRE1α LD-Fc” value (IRE1α LD-Fc) was “little binding over background”.
